# Reference: IntAct's records for PubMed 29426014
# B1: Ubiquitin-protein ligase (Homo sapiens), Q05086-3 (parent)
# chain: MATACKRSGEPQSDDIEASRMKRAAAKHLIERYYHQLTEGCGNEACTNEFCASCPTFLRMDNNAAAIKALELYKINAKLCDPHPSKKGASSAYLENSKGAPNNSCSEIKMNKKGARIDFKDVTYLTEEKVYEILELCREREDYSPLIRVIGRVFSSAEALVQSFRKVKQHTKEELKSLQAKDEDKDEDEKEKAACSAAAMEEDSEASSSRIGDSSQGDNNLQKLGPDDVSVDIDAIRRVYTRLLSNEKIETAFLNALVYLSPNVECDLTYHNVYSRDPNYLNLFIIVMENRNLHSPEYLEMALPLFCKAMSKLPLAAQGKLIRLWSKYNADQIRRMMETFQQLITYKVISNEFNSRNLVNDDDAIVAASKCLKMVYYANVVGGEVDTNHNEEDDEEPIPESSELTLQELLGEERRNKKGPRVDPLETELGVKTLDCRKPLIPFEEFINEPLNEVLEMDKDYTFFKVETENKFSFMTCPFILNAVTKNLGLYYDNRIRMYSERRITVLYSLVQGQQLNPYLRLKVRRDHIIDDALVRLEMIAMENPADLKKQLYVEFEGEQGVDEGGVSKEFFQLVVEEIFNPDIGMFTYDESTKLFWFNPSSFETEGQFTLIGIVLGLAIYNNCILDVHFPMVVYRKLMGKKGTFRDLGDSHPVLYQSLKDLLEYEGNVEDDMMITFQISQTDLFGNPMMYDLKENGDKIPITNENRKEFVNLYSDYILNKSVEKQFKAFRRGFHMVTNESPLKYLFRPEEIELLICGSRNLDFQALEETTEYDGGYTRDSVLIREFWEIVHSFTDEQKRLFLQFTTGTDRAPVGGLGKLKMIIAKNGPDTERLPTSHTCFNVLLLPEYSSKEKLKERLLKAITYAKGFGML
# B2: Ubiquitin-protein ligase (Homo sapiens), Q05086-1 (parent)
# chain: MEKLHQCYWKSGEPQSDDIEASRMKRAAAKHLIERYYHQLTEGCGNEACTNEFCASCPTFLRMDNNAAAIKALELYKINAKLCDPHPSKKGASSAYLENSKGAPNNSCSEIKMNKKGARIDFKDVTYLTEEKVYEILELCREREDYSPLIRVIGRVFSSAEALVQSFRKVKQHTKEELKSLQAKDEDKDEDEKEKAACSAAAMEEDSEASSSRIGDSSQGDNNLQKLGPDDVSVDIDAIRRVYTRLLSNEKIETAFLNALVYLSPNVECDLTYHNVYSRDPNYLNLFIIVMENRNLHSPEYLEMALPLFCKAMSKLPLAAQGKLIRLWSKYNADQIRRMMETFQQLITYKVISNEFNSRNLVNDDDAIVAASKCLKMVYYANVVGGEVDTNHNEEDDEEPIPESSELTLQELLGEERRNKKGPRVDPLETELGVKTLDCRKPLIPFEEFINEPLNEVLEMDKDYTFFKVETENKFSFMTCPFILNAVTKNLGLYYDNRIRMYSERRITVLYSLVQGQQLNPYLRLKVRRDHIIDDALVRLEMIAMENPADLKKQLYVEFEGEQGVDEGGVSKEFFQLVVEEIFNPDIGMFTYDESTKLFWFNPSSFETEGQFTLIGIVLGLAIYNNCILDVHFPMVVYRKLMGKKGTFRDLGDSHPVLYQSLKDLLEYEGNVEDDMMITFQISQTDLFGNPMMYDLKENGDKIPITNENRKEFVNLYSDYILNKSVEKQFKAFRRGFHMVTNESPLKYLFRPEEIELLICGSRNLDFQALEETTEYDGGYTRDSVLIREFWEIVHSFTDEQKRLFLQFTTGTDRAPVGGLGKLKMIIAKNGPDTERLPTSHTCFNVLLLPEYSSKEKLKERLLKAITYAKGFGML
# partner: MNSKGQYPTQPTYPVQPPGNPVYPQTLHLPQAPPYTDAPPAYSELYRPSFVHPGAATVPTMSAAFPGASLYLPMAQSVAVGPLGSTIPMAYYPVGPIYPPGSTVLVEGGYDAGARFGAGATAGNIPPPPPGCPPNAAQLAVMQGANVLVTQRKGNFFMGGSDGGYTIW
# B3: Ubiquitin-protein ligase (Homo sapiens), Q05086-3 (parent)
# chain: B1 chain
# partner: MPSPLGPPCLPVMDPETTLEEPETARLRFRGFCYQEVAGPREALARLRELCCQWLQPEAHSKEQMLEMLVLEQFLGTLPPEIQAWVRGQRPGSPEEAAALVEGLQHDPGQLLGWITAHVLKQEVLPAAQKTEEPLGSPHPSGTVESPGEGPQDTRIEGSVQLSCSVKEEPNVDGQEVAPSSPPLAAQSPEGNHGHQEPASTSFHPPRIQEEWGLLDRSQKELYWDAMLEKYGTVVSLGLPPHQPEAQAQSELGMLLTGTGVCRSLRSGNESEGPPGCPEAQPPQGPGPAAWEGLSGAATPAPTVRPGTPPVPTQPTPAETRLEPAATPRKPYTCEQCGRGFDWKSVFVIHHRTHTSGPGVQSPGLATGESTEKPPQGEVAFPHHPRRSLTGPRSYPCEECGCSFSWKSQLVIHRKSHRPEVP
# B4: Ubiquitin-protein ligase (Homo sapiens), Q05086-1 (parent)
# chain: B2 chain
# partner: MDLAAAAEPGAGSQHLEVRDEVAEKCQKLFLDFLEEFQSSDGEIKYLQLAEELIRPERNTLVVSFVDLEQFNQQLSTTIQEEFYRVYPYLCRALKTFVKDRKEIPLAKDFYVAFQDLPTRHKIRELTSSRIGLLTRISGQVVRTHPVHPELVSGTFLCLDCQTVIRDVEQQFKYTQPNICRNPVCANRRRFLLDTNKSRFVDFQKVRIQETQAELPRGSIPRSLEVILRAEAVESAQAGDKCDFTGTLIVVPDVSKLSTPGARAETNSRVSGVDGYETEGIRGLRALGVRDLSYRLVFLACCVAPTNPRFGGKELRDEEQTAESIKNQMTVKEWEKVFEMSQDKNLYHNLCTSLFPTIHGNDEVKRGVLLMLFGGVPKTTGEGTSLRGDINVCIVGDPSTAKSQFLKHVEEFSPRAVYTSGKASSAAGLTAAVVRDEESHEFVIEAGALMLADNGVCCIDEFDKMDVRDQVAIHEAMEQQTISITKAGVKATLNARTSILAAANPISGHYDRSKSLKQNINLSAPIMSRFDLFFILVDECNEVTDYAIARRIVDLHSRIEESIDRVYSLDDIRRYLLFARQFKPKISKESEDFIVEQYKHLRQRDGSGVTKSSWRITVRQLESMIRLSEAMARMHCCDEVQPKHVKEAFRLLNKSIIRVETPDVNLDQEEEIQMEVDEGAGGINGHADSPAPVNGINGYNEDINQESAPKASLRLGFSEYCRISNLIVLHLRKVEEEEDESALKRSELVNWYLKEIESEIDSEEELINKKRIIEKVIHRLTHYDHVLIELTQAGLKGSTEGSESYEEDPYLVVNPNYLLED
# B5: Ubiquitin-protein ligase (Homo sapiens), Q05086-1 (parent)
# chain: B2 chain
# Variants of: B1
# Settings: with ZNF250, P15622-3
row,Variant,effect of a mutation on the interaction
1,C840A,causing an interaction

# Variants of: B1
# Settings: with PAX6, P26367-1
# Target sequence in this assay (P26367 whole entry): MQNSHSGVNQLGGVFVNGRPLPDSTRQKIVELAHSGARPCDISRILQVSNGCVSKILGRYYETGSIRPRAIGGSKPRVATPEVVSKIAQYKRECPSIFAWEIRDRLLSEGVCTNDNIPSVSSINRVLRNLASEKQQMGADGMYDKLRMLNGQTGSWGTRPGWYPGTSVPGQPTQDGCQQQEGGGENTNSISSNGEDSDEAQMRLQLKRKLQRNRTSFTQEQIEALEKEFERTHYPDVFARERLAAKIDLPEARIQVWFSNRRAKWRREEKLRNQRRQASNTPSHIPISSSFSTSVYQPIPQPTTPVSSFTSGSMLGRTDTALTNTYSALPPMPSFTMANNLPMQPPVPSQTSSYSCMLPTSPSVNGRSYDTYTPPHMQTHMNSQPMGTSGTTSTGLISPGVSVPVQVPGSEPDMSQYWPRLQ
row,Variant,effect of a mutation on the interaction
1,C840A,causing an interaction

# Variants of: B1
# Settings: with magac_human MAGEA12, P43365
# Target sequence in this assay (P43365 whole entry): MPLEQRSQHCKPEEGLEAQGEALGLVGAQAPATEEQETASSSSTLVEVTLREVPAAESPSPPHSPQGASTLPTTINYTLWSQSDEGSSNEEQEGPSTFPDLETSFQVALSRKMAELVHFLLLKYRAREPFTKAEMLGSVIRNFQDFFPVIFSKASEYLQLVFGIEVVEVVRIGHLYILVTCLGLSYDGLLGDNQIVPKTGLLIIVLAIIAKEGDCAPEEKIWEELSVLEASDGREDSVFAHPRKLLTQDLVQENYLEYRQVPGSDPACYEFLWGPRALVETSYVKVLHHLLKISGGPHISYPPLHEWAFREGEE
row,Variant,effect of a mutation on the interaction
1,C840A,with no effect

# Variants of: B1
# Settings: with PSMD4, P55036-1
# Target sequence in this assay (P55036 whole entry): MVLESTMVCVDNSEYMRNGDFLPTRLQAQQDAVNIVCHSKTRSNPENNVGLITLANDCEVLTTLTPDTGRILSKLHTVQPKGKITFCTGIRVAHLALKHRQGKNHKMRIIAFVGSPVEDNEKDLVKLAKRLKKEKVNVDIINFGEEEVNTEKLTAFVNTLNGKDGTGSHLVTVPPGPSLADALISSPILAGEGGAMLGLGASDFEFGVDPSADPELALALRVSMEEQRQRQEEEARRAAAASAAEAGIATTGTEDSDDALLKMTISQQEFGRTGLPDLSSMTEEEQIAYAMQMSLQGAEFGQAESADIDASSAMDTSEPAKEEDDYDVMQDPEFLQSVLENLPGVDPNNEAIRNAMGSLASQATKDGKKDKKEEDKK
row,Variant,effect of a mutation on the interaction
1,C840A,with no effect

# Variants of: B1
# Settings: with PAX5, Q02548-1
# Target sequence in this assay (Q02548 whole entry): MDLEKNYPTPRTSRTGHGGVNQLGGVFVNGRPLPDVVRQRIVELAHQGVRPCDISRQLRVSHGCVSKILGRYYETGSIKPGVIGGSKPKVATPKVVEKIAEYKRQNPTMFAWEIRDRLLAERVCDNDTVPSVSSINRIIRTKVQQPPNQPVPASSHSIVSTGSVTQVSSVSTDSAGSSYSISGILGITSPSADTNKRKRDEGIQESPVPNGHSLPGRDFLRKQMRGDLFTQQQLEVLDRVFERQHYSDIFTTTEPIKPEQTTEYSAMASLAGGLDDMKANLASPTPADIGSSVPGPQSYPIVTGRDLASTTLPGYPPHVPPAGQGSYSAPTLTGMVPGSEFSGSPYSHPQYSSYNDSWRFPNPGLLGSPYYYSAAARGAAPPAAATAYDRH
row,Variant,effect of a mutation on the interaction
1,C840A,causing an interaction

# Variants of: B1
# Settings: with PTCD3, Q96EY7-1
row,Variant,effect of a mutation on the interaction
1,C840A,with no effect

# Variants of: B1
# Settings: with ubql2_human UBQLN2, Q9UHD9
# Target sequence in this assay (Q9UHD9 whole entry): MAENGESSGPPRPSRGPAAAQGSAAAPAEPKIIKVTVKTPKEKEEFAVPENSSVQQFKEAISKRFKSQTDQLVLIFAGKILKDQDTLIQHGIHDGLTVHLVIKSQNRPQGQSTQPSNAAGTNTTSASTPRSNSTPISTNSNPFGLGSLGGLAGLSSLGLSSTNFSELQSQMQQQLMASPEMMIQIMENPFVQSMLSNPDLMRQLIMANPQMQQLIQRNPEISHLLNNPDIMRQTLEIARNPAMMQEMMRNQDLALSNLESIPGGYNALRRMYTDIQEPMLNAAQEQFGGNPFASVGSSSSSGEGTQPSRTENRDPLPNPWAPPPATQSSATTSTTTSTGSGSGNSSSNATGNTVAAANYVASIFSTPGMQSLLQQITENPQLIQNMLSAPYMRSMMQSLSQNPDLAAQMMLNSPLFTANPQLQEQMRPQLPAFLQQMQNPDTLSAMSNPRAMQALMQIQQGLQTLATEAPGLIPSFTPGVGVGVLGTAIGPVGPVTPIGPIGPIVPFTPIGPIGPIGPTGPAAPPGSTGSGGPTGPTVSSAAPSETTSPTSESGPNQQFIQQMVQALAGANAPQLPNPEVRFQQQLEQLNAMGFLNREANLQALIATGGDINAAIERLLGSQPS
row,Variant,effect of a mutation on the interaction
1,C840A,with no effect

# Variants of: B1
# Settings: with UBQLN1, Q9UMX0-1
# Target sequence in this assay (Q9UMX0 whole entry): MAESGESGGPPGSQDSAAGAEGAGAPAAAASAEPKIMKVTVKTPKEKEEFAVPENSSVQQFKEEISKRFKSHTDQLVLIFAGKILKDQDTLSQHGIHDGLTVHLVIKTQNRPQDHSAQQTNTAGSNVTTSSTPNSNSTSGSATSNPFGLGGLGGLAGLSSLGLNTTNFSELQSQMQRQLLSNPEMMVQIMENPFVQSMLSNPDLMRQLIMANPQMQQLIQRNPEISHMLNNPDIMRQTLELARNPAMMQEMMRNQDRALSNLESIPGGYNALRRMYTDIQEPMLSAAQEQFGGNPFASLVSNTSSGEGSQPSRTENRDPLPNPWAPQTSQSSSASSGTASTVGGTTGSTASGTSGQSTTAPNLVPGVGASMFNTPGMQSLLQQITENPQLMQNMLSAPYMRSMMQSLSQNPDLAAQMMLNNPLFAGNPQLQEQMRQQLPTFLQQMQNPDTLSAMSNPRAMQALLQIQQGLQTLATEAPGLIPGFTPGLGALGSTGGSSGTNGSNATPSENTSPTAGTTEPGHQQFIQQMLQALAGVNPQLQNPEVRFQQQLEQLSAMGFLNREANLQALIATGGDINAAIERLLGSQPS
row,Variant,effect of a mutation on the interaction
1,C840A,with no effect

# Variants of: B2
# Settings: with DAZAP2, Q15038-1
row,Variant,effect of a mutation on the interaction
1,C843A,causing an interaction

# Variants of: B3
# Settings: with ZNF446, Q9NWS9-2
row,Variant,effect of a mutation on the interaction
1,C840A,causing an interaction

# Variants of: B4
# Settings: with mcm6_human MCM6, Q14566
row,Variant,effect of a mutation on the interaction
1,C843A,with no effect

# Variants of: B5
# Settings: with ZNF250, P15622-3
# Target sequence in this assay (P15622 other isoform, or with tags, fused parts or gaps): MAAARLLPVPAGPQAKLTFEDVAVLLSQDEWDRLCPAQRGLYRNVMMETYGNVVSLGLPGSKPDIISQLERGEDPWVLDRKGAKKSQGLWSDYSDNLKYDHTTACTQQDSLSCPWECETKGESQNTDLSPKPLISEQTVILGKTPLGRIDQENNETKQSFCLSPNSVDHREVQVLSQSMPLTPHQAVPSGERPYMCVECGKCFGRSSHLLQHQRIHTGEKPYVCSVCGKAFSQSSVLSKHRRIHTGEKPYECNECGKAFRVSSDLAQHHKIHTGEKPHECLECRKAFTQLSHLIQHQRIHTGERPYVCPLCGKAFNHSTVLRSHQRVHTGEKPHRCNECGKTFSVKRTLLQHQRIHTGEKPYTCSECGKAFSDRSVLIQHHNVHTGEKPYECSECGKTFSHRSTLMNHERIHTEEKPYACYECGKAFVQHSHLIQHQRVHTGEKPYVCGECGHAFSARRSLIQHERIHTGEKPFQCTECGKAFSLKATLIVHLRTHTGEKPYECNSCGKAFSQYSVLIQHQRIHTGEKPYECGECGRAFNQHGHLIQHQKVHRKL
row,Variant,effect of a mutation on the interaction
1,C843A,causing an interaction

# Variants of: B5
# Settings: with PAX6, P26367-1
# Target sequence in this assay (P26367 whole entry): as the sequence (P26367 whole entry) above
row,Variant,effect of a mutation on the interaction
1,C843A,causing an interaction

# Variants of: B5
# Settings: with magac_human MAGEA12, P43365
# Target sequence in this assay (P43365 whole entry): as the sequence (P43365 whole entry) above
row,Variant,effect of a mutation on the interaction
1,C843A,causing an interaction

# Variants of: B5
# Settings: with PSMD4, P55036-1
# Target sequence in this assay (P55036 whole entry): as the sequence (P55036 whole entry) above
row,Variant,effect of a mutation on the interaction
1,C843A,with no effect

# Variants of: B5
# Settings: with PAX5, Q02548-1
# Target sequence in this assay (Q02548 whole entry): as the sequence (Q02548 whole entry) above
row,Variant,effect of a mutation on the interaction
1,C843A,causing an interaction

# Variants of: B5
# Settings: with PTCD3, Q96EY7-1
row,Variant,effect of a mutation on the interaction
1,C843A,with no effect

# Variants of: B5
# Settings: with ubql2_human UBQLN2, Q9UHD9
# Target sequence in this assay (Q9UHD9 whole entry): as the sequence (Q9UHD9 whole entry) above
row,Variant,effect of a mutation on the interaction
1,C843A,with no effect

# Variants of: B5
# Settings: with UBQLN1, Q9UMX0-1
# Target sequence in this assay (Q9UMX0 whole entry): as the sequence (Q9UMX0 whole entry) above
row,Variant,effect of a mutation on the interaction
1,C843A,with no effect
